Data on 26 molecules can be found in US20240309093A1 (MINGHUI PHARMACEUTICAL HANGZHOU, published 2024).

One may read the EC50 as the concentration giving half of the maximal effect. As usually defined, the IC50 is the point on the concentration scale where inhibition reaches its midpoint.

Assay [1] concerns the target T1, recombinant human PD-1-his protein (human, UniProt Q15116 25-167).
T1 construct: also called hPD-1-his; not shown: his tag
Briefly: ELISA; PD-1-his coated 2 µg/mL, anti-human IgG Fc-HRP. The protocol: (§1) The plates were washed three times with PBST. 5% PBS-Milk was added and incubated at room temperature for 2 h. The plates were washed three times with PBST. All the nanobody-Fc fusion proteins were subject to 3-fold gradient dilutions with an initial concentration of 10 μg/mL, added into each well at 30 μL/well, and incubated at room temperature for 1 hr. The plates were washed three times with PBST. The secondary antibody Goat-Anti-Human-IgG-Fc-HRP was diluted at 1:8000, added into each well at 30 μL/well, and incubated at room temperature for 50 min. The plates were washed nine times with PBST. TMB was added into each well at 30 μL/well and developed at room temperature in dark for 1 min to 5 min. 2 M hydrochloric acid was added at 30 μL/well to stop the reaction. The OD450 absorbance value was read by a microplate reader. Graphpad Prism software was used to fit the curve and calculate the EC₅₀ value (see Table 7).
For orientation: An ELISA detects its analyte on a solid surface through an enzyme-linked reagent.

For assay [2], the target named is T2, recombinant human PD-1-Fc-Biotin (human, UniProt Q15116 25-167, biotin (site not stated)).
T2 construct: also called antigen protein human PD-1; not shown: Fc
T2 sequence (Q15116 25-167 limits assumed): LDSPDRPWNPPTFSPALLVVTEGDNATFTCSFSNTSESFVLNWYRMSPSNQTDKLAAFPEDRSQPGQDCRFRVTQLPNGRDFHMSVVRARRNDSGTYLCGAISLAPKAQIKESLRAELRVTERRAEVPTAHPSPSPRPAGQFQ
Briefly: competitive ELISA; PD-L1-mFc coated, 0.5 µg/mL PD-1-Fc-Biotin, streptavidin-HRP. The protocol: The plates were washed three times with PBST. 5% PBS-Milk was added and incubated at room temperature for 1 hr. All the nanobody-Fc fusion proteins were subject to 3-fold gradient dilutions with an initial concentration of 10 μg/mL, added into each well at 30 μL/well, and incubated at room temperature for 1 hr. […] The well plates were washed with PBST between incubations.

Assay [3] deals with T1, recombinant human PD-1-his protein. Briefly: ELISA; PD-1-his coated 2 µg/mL, anti-human IgG Fc-HRP. The protocol:
as §1, with “PBS-Milk” for “PBS-Milk was added”, “3-folded” for “3-fold”, “dilution” for “dilutions”, “calculate” for “calculate the”, “values.” for “value (see Table 7).”
This is another data set of the same source.

Where two headings read alike, the source gives them in different places.

T1 sequence (Q15116 25-167 limits assumed): as above

B1: MHPD1-A-2 H Fc (Fc fusion, not shown: a dimerising Fc or GST; small tags and cut ends)
VHH: QVQLVESGGGLVQPGGSLRLSCAASGRFPSIYAMGWFRQAPGKGLEFVAGIGWRYATTYYADSVKGRFTISRDNTKNTLYLQMNSLRAEDTAVYYCAADLDHSGFDYWGQGTLVTVSS
Take B1: the EC50 in assay [1] worked out at 0.553 nM. Besides, the IC50 in assay [2] was 0.419 nM.

B2: MHPD1-A-33 H Fc (Fc fusion)
VHH: QVQLVESGGGLVQPGGSLRLSCATSGSRSQIYAMGWFRQAPGKGLEFVAGIGWAYATTYYADSVKGRFTISRDNTKNTLYLQMNSLRAEDTAVYYCAADLDHSGFDYWGQGTLVTVSS
notes: not shown: Fc region
With B2, the EC50 in assay [3] stood at 0.628 nM.

B3: MHPD1-A-31 H Fc (Fc fusion)
VHH: QVQLVESGGGLVQPGGSLRLSCATSGSRRSIYAMGWFRQAPGKGLEFVAGLGWAYATTYYADSVKGRFTISRDNTKNTLYLQMNSLRAEDTAVYYCAADLDHHGFDYWGQGTLVTVSS
notes: not shown: Fc region
Take B3: the EC50 in assay [3] is 0.219 nM.

B4: MHPD1-A-46 H Fc (Fc fusion, not shown: a dimerising Fc or GST; small tags and cut ends)
VHH: QVQLVESGGGLVQPGGSLRLSCATSGSKGSIYAMGWFRQAPGKGLEFVAGIGWAYATTYYADSVKGRFTISRDNTKNTLYLQMNSLRAEDTAVYYCAADLDRSGFDYWGQGTLVTVSS
With B4, the EC50 in assay [3] was 0.252 nM.

B5: MHPD1-A-5 H Fc (Fc fusion, not shown: a dimerising Fc or GST; small tags and cut ends)
VHH: QVQLVESGGGLVQPGGSLRLSCAASGSSLSIYAMGWFRQAPGKGLEFVAGIGWAYATTYYADSVKGRFTISRDNTKNTLYLQMNSLRAEDTAVYYCAADLDHSGFDYWGQGTLVTVSS
Turning to B5, the EC50 in assay [1] was 0.157 nM. The IC50 in assay [2] is 0.306 nM.

B6: MHPD1-A-17 H Fc (Fc fusion, not shown: a dimerising Fc or GST; small tags and cut ends)
VHH: QVQLVESGGGLVQPGGSLRLSCATSGSISSIYAMGWFRQAPGKGLEFVAGIGWAYATTYYADSVKGRFTISRDNTKNTLYLQMNSLRAEDTAVYYCAADLDHSGFDYWGQGTLVTVSS
As to B6, the EC50 in assay [3] was 0.196 nM.

B7: MHPD1-A-9 H Fc (Fc fusion, not shown: a dimerising Fc or GST; small tags and cut ends)
VHH: QVQLVESGGGLVQPGGSLRLSCAASGSGHSIYAMGWFRQAPGKGLEFVAGIGWSYATTYYADSVKGRFTISRDNTKNTLYLQMNSLRAEDTAVYYCAADLDHSGFDYWGQGTLVTVSS
For B7, the concentration giving a half-maximal response (EC50) in assay [1] came out at 0.163 nM. The IC50 in assay [2] amounted to 0.256 nM.

B8: MHPD1-A-16 H Fc (Fc fusion, not shown: a dimerising Fc or GST; small tags and cut ends)
VHH: QVQLVESGGGLVQPGGSLRLSCATSGSRVSIYAMGWFRQAPGKGLEFVAGIGWAYATTYYADSVKGRFTISRDNTKNTLYLQMNSLRAEDTAVYYCAADLDHSGFDYWGQGTLVTVSS
As to B8, in assay [3], the EC50 came out at 0.187 nM.

B9: MHPD1-A-43 H Fc (Fc fusion, not shown: a dimerising Fc or GST; small tags and cut ends)
VHH: QVQLVESGGGLVQPGGSLRLSCATSGSRRSIYAMGWFRQAPGKGLEFVAGIGWAYATTYYADSVKGRFTISRDNTKNTLYLQMNSLRAEDTAVYYCAADLDRAGFDYWGQGTLVTVSS
Regarding B9, in assay [3], the EC50 amounted to 0.387 nM.

B10: MHPD1-A-27 H Fc (Fc fusion)
VHH: QVQLVESGGGLVQPGGSLRLSCATSKSRRSIYAMGWFRQAPGKGLEFVAGIGWAYATTYYADSVKGRFTISRDNTKNTLYLQMNSLRAEDTAVYYCAADLDHSGFDYWGQGTLVTVSS
notes: not shown: Fc region
In the case of B10, the EC50 in assay [3] was determined as 0.54 nM.

B11: MHPD1-A-38 H Fc (Fc fusion, not shown: a dimerising Fc or GST; small tags and cut ends)
VHH: QVQLVESGGGLVQPGGSLRLSCATSGNRRSIYAMGWFRQAPGKGLEFVAGIGWAYATTYYADSVKGRFTISRDNTKNTLYLQMNSLRAEDTAVYYCAADLDRRGFDYWGQGTLVTVSS
On to B11, for which, in assay [3], the EC50 turned out to be 0.421 nM.

B12: MHPD1-A-24 H Fc (Fc fusion)
chain: QVQLVESGGGLVQPGGSLRLSCATSGSRHSIYAMGWFRQAPGKGLEFVAGIGWAYATTYYADSVKGRFTISRDNTKNTLYLQMNSLRAEDTAVYYCAADLDRAGFDYWGQGTLVTVSS
notes: not shown: Fc
For B12, the EC50 in assay [3] is 0.177 nM.

B13: MHPD1-A-12 H Fc (Fc fusion, not shown: a dimerising Fc or GST; small tags and cut ends)
VHH: QVQLVESGGGLVQPGGSLRLSCAASGSDYAIYAMGWFRQAPGKGLEFVAGIGWAFATTYYADSVKGRFTISRDNTKNTLYLQMNSLRAEDTAVYYCAADLDHSGFDYWGQGTLVTVSS
Turning to B13, the concentration for a half-maximal effect (EC50) in assay [1] was found to be 0.311 nM. Further, the IC50 in assay [2] was 0.293 nM.

B14: MHPD1-A-42 H Fc (Fc fusion)
chain: QVQLVESGGGLVQPGGSLRLSCATSGSRQTIYAMGWFRQAPGKGLEFVAGIGWAYATQYYADSVKGRFTISRDNTKNTLYLQMNSLRAEDTAVYYCAADLDHSGFDYWGQGTLVTVSS
notes: not shown: Fc
B14: the EC50 in assay [3] stood at 0.193 nM.

B15: MHPD1-A-29 H Fc (Fc fusion)
VHH: QVQLVESGGGLVQPGGSLRLSCATSGSGGSIYAMGWFRQAPGKGLEFVAGIGWAYATTYYADSVKGRFTISRDNTKNTLYLQMNSLRAEDTAVYYCAADLDHSGFDYWGQGTLVTVSS
notes: not shown: Fc region
For the molecule B15, in assay [3], the EC50 worked out at 2.18 nM.

B16: MHPD1-A-22 H Fc (Fc fusion)
VHH: QVQLVESGGGLVQPGGSLRLSCATSGSRRSIYAMGWFRQAPGKGLEFVAGIGWAYATTYYADSVKGRFTISRDNTKNTLYLQMNSLRAEDTAVYYCAADLDRGGFDYWGQGTLVTVSS
notes: not shown: Fc region
In the case of B16, the EC50 in assay [3] is 0.242 nM.

B17: MHPD1-A-35 H Fc (Fc fusion)
VHH: QVQLVESGGGLVQPGGSLRLSCATSAPRRSIYAMGWFRQAPGKGLEFVAGIGWAYGTTYYADSVKGRFTISRDNTKNTLYLQMNSLRAEDTAVYYCAADLDHSGFDYWGQGTLVTVSS
notes: not shown: Fc region
With B17, in assay [3], the EC50 amounted to 0.824 nM.

B18: MHPD1-A-10 H Fc (Fc fusion, not shown: a dimerising Fc or GST; small tags and cut ends)
VHH: QVQLVESGGGLVQPGGSLRLSCAASGSDDRIYAMGWFRQAPGKGLEFVAGIGWRYATTYYADSVKGRFTISRDNTKNTLYLQMNSLRAEDTAVYYCAADLDHSGFDYWGQGTLVTVSS
As for B18, the EC50 in assay [1] was 0.2 nM. Also, the IC50 in assay [2] was 0.287 nM.

B19: MHPD1-A-11 H Fc (Fc fusion, not shown: a dimerising Fc or GST; small tags and cut ends)
VHH: QVQLVESGGGLVQPGGSLRLSCAASGSQLSIYAMGWFRQAPGKGLEFVAGIGWRFATTYYADSVKGRFTISRDNTKNTLYLQMNSLRAEDTAVYYCAADLDHSGFDYWGQGTLVTVSS
Turning to B19, the EC50 in assay [1] stood at 0.222 nM. Also, in assay [2], the IC50 was 0.365 nM.

B20: MHPD1-A-25 H Fc (Fc fusion)
chain: QVQLVESGGGLVQPGGSLRLSCATSGVRRSIYAMGWFRQAPGKGLEFVAGIGWAYATTYYADSVKGRFTISRDNTKNTLYLQMNSLRAEDTAVYYCAADLDRHGFDYWGQGTLVTVSS
notes: not shown: Fc
In the case of B20, in assay [3], the half-maximal effective concentration (EC50) turned out to be 0.211 nM.

B21: MHPD1-A-1 H Fc (Fc fusion, not shown: a dimerising Fc or GST; small tags and cut ends)
VHH: QVQLVESGGGLVQPGGSLRLSCAASGSDPSIYAMGWFRQAPGKGLEFVAGIGWAWATTYYADSVKGRFTISRDNTKNTLYLQMNSLRAEDTAVYYCAADLDRSGFDYWGQGTLVTVSS
For B21, the EC50 in assay [1] came to 0.613 nM. For the same molecule, the IC50 in assay [2] was found to be 0.572 nM.

B22: MHPD1-A-28 H Fc (Fc fusion)
VHH: QVQLVESGGGLVQPGGSLRLSCATSKLRRSIYAMGWFRQAPGKGLEFVAGIGWAYATQYYADSVKGRFTISRDNTKNTLYLQMNSLRAEDTAVYYCAADLDHSGFDYWGQGTLVTVSS
notes: not shown: Fc region
With B22, in assay [3], the EC50 was 0.242 nM.

B23: MHPD1-A-44 H Fc (Fc fusion)
chain: QVQLVESGGGLVQPGGSLRLSCATSGSRTRIYAMGWFRQAPGKGLEFVAGIGWAYATEYYADSVKGRFTISRDNTKNTLYLQMNSLRAEDTAVYYCAADLDHSGFDYWGQGTLVTVSS
notes: not shown: Fc
Take B23: the EC50 in assay [3] worked out at 0.198 nM.

B24: MHPD1-A-19 H Fc (Fc fusion, not shown: a dimerising Fc or GST; small tags and cut ends)
VHH: QVQLVESGGGLVQPGGSLRLSCATSGSEVSIYAMGWFRQAPGKGLEFVAGIGWAYATTYYADSVKGRFTISRDNTKNTLYLQMNSLRAEDTAVYYCAADLDRRGFDYWGQGTLVTVSS
For B24, in assay [3], the EC50 is 0.27 nM.

B25: MHPD1-A-18 H Fc (Fc fusion, not shown: a dimerising Fc or GST; small tags and cut ends)
VHH: QVQLVESGGGLVQPGGSLRLSCATSGSRSSIYAMGWFRQAPGKGLEFVAGLGWAYATTYYADSVKGRFTISRDNTKNTLYLQMNSLRAEDTAVYYCAADLDHLGFDYWGQGTLVTVSS
As for B25, the EC50 in assay [3] was 0.178 nM.

B26: MHPD1-A-6 H Fc (Fc fusion, not shown: a dimerising Fc or GST; small tags and cut ends)
VHH: QVQLVESGGGLVQPGGSLRLSCAASGRRPSIYAMGWFRQAPGKGLEFVAGIGWNYATTYYADSVKGRFTISRDNTKNTLYLQMNSLRAEDTAVYYCAADLDHSGFDYWGQGTLVTVSS
In the case of B26, the EC50 in assay [1] turned out to be 0.16 nM. Moreover, the IC50 in assay [2] was 0.407 nM.
